Data as given in a protein production outcome set (Wang et al. 2014).

test: label from the status in PepcDB records

Sequence | protein production
MRTLEPPNRMRIGLMGIVVALLVVAVGQSFTSVPMLFAKPSYYGQFTDSGGLHKGDRVRIAGLGVGTVEGLKIDGDHIVVKFSIGTNTIGTESRLAIRTDTILGRKVLEIEPRGAQALPPGGVLPVGQSTTPYQIYDAFFDVTKAASGWDIETVKRSLNVLSETVDQTYPHLSAALDGVAKFSDTIGKRDEQITHLLAQANQVASILGDRSDQVDRLLVNAKTLIAAFNERGRAVDALLGNISAFSAQVQNLINDNPNLNHVLEQLRILTDLLVDRKEDLAETLTILGRFSASFGETFASGPYFKVLLANLVPGQILQPFVDAAFKKRGISPEDFWRSAGLPAYRWPDPNGTRFPNGAPPPPPPVLEGTPEHPGPAVPPGSPCSYTPPADGLPRPWDPLPCANLTQGPFGGPDFPAPLDVATSPPNPDGPPPAPGLPIAGRPGEVPPNVPGTPVPIPQEAPPGARTLPLGPAPGPAPPPAAPGPPAPPGPGPQLPAPFINPGGTGGSGVTGGSEN | failed
MRTLTTLLGNSQKLDGGAMFGNAPRALWSRWMQPDAENRIDLGCRALLVRDGERNVLVEAGIGAFFPPALRQRYGVQEERHVLLDSLAAVGLDDADIDVVLLTHLHFDHAGGLLAAWEEGQPARLLFPNAHFVSGRRHWQRARQPHPRDRASFVPELLDLLQASGRLELLDDGERSAHLGEGWRFHFSEGHTPGQMLPEIAMPDGPVVFSGDLIPGAPWVHLPLTMGYDRFPEGLIEEKERLLDSLIARNGRLVFTHDPCVAMGRVRRDEQERYSLYDTLERVENLEA | failed
MRTVSHPTPLRRAPVQRRSAERLTRILDACADLLDEVGYDALSTRAVALRADVPIGSVYRFFGNKRQMADALAQRNLERYAERVTERLTEAGDGGWRGALDTVLDEYLAMKRTAPGFSLIDFGNQIPVGDRHAVPNHRVAERLTELLSGYLGRRPDDDLRRVFLVAVETADTLVQLAFRVAPDGDEKIIEEARELLRAYLGRVLD | not failed
MRTYTAQPDTTRPDTLTVTTYNIGYLSGMRNNEPVVRPDSLFHANMDQAAGYLRAAAPDIVALQEIDFGGARAAHVHQLDTLAARLGYPGAAQAVNWDERYLPFPYGRPAVHFGRTLSGQAVLSRFPVRRHVRRTLPRPPQPFFRDAFYLDRLAQVGVVDVDGRPLAVINVHLEAFDVGTRETQARVVNDLYRRLADRGIPTLLLGDFNSSLSSGEEGGQAGAEDATMQHILAGTDLRSAVNTASADTASATYPADAPARTIDHIFYPPQFFEAVDTQRWCGRPAPPSDHCAVTAALRLPSRAKWPSHEALPPLEDSPTE | failed
MRVAVAGFGGVGRRLARLLLERGGSHGLSLAAAIDSRGHAVFDSRGCVEEALSAPRGGLAGVSCGAPGSGPGVLRGLGYDALVLTTASSPGTGEPGLGYARAALEDGKVVVAADKPPVALLLLEHGGPPPGLFYKATVMAGTPLIDLLRVGLAGRRVLRVVGVLNGTSNYILNLLMEGV | failed
MRVEALGKVAPLPQAQTPVSLNEASLEELMALPGIGPVLARRIVEGRPYARVEDLLKVKGIGPATLERLRPYLRP | not failed
MRVEENYHAFFTEASGFLNERIFKDYLRRLAYGIDASCYRYIPKIVAWVKNEEEVQKLCVLAKKHGVSLTFRAAGSSLSGQAICDGVLVMVTHFFKDAQILDNAQSIQLSCGVIGSNANALLKPYHKKIGPDPSTINTAMIGGIVANNASGMCCGVEQNSYKTLKSLRVILADGTLLDTANQESVESFKNAHKDLIEGVLNLRKEILEDKELHALIKKKYEIKNTTGYSLNALIDFEDPIEIISHLFIGSEGTLGFISSVELECVKDYAYKTCALLFYENLERCAKAAQILAALKAKQPEMISSAELMDYACLKSVKGLEGMPSVVLEIKEPNACLLIQSESDDPLILENSMQTILNALSAIPVVLDSQISSDPSIYQSWWKIRKGIFPIAASKRKSQSSVIIEDICFSQEDFVEGAKAIEGLLKKHGFKDNGIIFGHALSGNLHFVVTPILENEAERKAFENLVSEMFLMVSKSSGSIKAEHGTGRMVAPFVEMEWGEKAYKIHKQIKELFDPNGILNPDVIITNDKEIHTKNLKSIYPIEEHLDMCMECGFCERICPSKDLSLTPRQRIVIHREVEHLKERVSHGHHEDQVLLDELLKESEYLAHATCAVCHMCSTLCPLEIDTGKIALNYYQKNPKGEKIASKILNHMQTTTSMARFSLKSARLVQNLIGSHNLVSLTKGIKKFIKPFPKAFYYMPKNNAYPLENKTLKSEEKVIYFSTCINRSFAPSNKMADKRCIQEVFESLCQKAKVSVMYPNGLNALCCGKAFINYTDLTKQNNEKNHAIFLQLSDKGKIPIVLDHSACSTHFFKQMKAYKDLKVYDLSVYIEEVLSPKLKFNPINEDIGLYTMCALKLENKEELLFNLAKKCTLGEIVIHKETGCCGFAGNKGFFTPELNESALNGFQAFYQSYDLKRGFSTSSTCEIGLSEKTRFSWQHIAYLVDACTL | failed
MRVIVTEYQPAWVEQFEEEAQALKQILKENCLKVEHIGSTSVPNLAAKPIIDFLVIVEEIEKVDLLQWEFERIGYEYMGEFGLSGRRYLRKGPIKRTHHVHIYQFDNTQEILRHLAFRNYLRENPAIATTYGTLKKQLAQAHPDSIDKYMDGKDAFIKKIEKEALKKYWE | not failed
MRVLAIRHVEIEDLGMMEDIFREKNWSFDYLDTPKGEKLERPLEEYSLVVLLGGYMGAYEEEKYPFLKYEFQLIEEILKKEIPFLGICLGSQMLAKVLGASVYRGKNGEEIGWYFVEKVSDNKFFREFPDRLRVFQWHGDTFDLPRRATRVFTSEKYENQGFVYGKAVGLQFHIEVGARTMKRWIEAYKDELEKKKIDPRLLLETAEREEKVLKGLLRSLLERMVES | not failed
MRVMAFVQARMGSTRLPGKSLMPVWNGMGVLEMTLRRALRARTLSGVVLCTSTDPACDALETLASGLGVQAFRGPEDDVLTRYALATERFEPDAVVRICADSPLVCPEGIDALVAFFRDEGLDYAAHAMDGTGLPDGLGCEVFTAAALAQAHAEATAPEDREHVSLFIRHRPERFRQATLAADAALRAPGVSLDVDTQDDLDALRRFIMALPPSEGPFWSADAIAPLARGLHTPPQGTSMDIASDDYHDFFIRDGKLIGEFEQMYRKSRHAPWHQDEACDKWFNKVSAALVGHALDDPSVRTVFEVGSGLGYFLSQFAGEGRTLTGTDVSATAVEKARALFPGISFEVDDIRFEGRRGPYDLCLMQAVCWCIFPHMDDVVRNVTATVRPGGYLFLGECFQPLDGPFAGKDVIPTPDALIGHFSHAFDTVADVRVTRGEMGGGPIIYWLGRRRGLEHHHHHH | not failed
MRVRNRKGATELLEANPQYVVLNPLEAKAKWRDLFGNDNPIHVEVGSGKGAFVSGMAKQNPDINYIGIDIQKSVLSYALDKVLEVGVPNIKLLWVDGSDLTDYFEDGEIDRLYLNFSDPWPKKRHEKRRLTYKTFLDTFKRILPENGEIHFKTDNRGLFEYSLVSFSQYGMKLNGVWLDLHASDFEGNVMTEYEQKFSNKGQVIYRVEAEF | not failed
MRVVRGDVARRALSIGWPLVVADSALSIAWIVDTYFVGGLGSESIAAVGAAGYLIWLYMVFSTLVYMGVLVILGQAIGSGNRGLVERAAGEGLTLSILLSIIVCAAAFAASKQLLVVLAPEVDQLAWEYLSVSLLTVALHYVTILYDAVFRALGKTMPILYSSGVFTLANTALDPILIYGRLGAPALGVEGAAWASVAASLLGLLVLVYLSRYLDVGLRPLRPTSVSRSILALGFPSMVERVVFVVGNVVYLGSVSRCGADALAAHTIGVRIESLAFLPLFSIATASGVMVGWEVGAGRIAESKSTGWELIKLSSLIGLVVGAALALGGWLVTPIFTGDPRVAWLAALYLVIAGLTEPLLGVVMVAGQIIRNAGDTRTPTLVNLGSLYILRVVPAYLLPGLMPTGLCVLGAWLAMGIDIVGRAAAIVFIYLRYYTRLARRVA | failed
MRWKYLVVLLIVILLASGCAEKSQGPGASAAFQEPESDTQDTEKTGNSEEGVHIDSVVFSRAGALLTLKDEAEISEIRVYSESEEIASQEIGKNKDNVFVSFNWDPEARYRFEVITGSGASGTIEAYAPSKPALKKEYTIELEDVTPGDIEKTSTNVEGALKFSPDSEYLAIGTNGGSLKLIKVATGEKVWEKQLVKGIADARIADIEFSEDGKRLFVGEESPDAFLYCFDLEGTEIWKYGAGKELGSDLKYMPAMKKIKLDSEGNIYVAASRACGYIGEKYKYLARIYSFDPEGNLRWKFPESEYMDSGVTWIDATPDGKYAVFGTTCFTETEKWREGTVHALNGNTGQEHWSYKIQPVEPFFDYSAIWYSTQITPDGEKLITMTSDGRAFLFNNSRIIETGTPEITWQQNISTPIVVSGVPIYGSANYAYIVNDTLIFSIGSTFSKDKNKDAPFEHPSGNSLFAYDYDGNLLWKWRVDGYAGECAVNDRYLVIPLAQNLVTEDRSVHGVYVFDASKSGGASSRLIQTYNTEGITVSADISPDGRYIAALEAPSRLDDGTVLGEYKVHILT | failed
MRWNCSACWASSASANAGRRRHFDTSLWRASCSGYGARARQIQAAWIRADTPESTRVPATRRIRLLNPVVPVRSLSACRHLTRSRPPLRSFTMPHVVARSGDVMSSAAPPSCTSLLGLSLSMFVAPCTLTAAPLDTPVVNAPAPTPPTPDQAYPELFQAVQSGELFDDQKHFVDFLPLRDPALINADYLAQHDHPGFDLRKFVDANFEESPPVQTDAIRQDTALREHIDLLWPKLVRSQNHVPPYSSLLSLPHPYVVPGGRFREVYYWDSYFTMLGLVKSGQTTLSRQMLDNFAYLIDTYGHIPNGNRSYYLSRSQPPFFSYMVELQAGVEGQAVYQRYLPQLQKEYAYWMQGSDDVQPGQAARHVVRLADGSVLNRYWDERDTPRPEAWLHDTRTAAEVKDRPAAEVYRDLRAGAESGWDYTSRWLADGQNLRTIRTTAIIPIDLNSLLYHLERTLAQACAQPGAACSRDYAALAQQRKQAIDAHLWNKAGYYADYDWQTRTLSDQITAAALYPLFAGLASDDHAKRTASTVRRTLVRPGGLATTAVKTGQQWDEPNGWAPLQWVAVDGLRRYGEQALARTIGERFLAQVQALFAREHKLVEKYGLETNAAGGGGGEYALQDGFGWTNGVTLMLLNLYPGKGAKAAPAKRVRKTEAAAR | failed
MRWRHPSALRKADERGRRTPCVVSATSLAVGRIALALLLVVLNGFFVAAEFAFVRLRSASVETLVQDGRRGATAVKEATDNLDDYLAVSQLGITIASLGLGWVGEPAVAVLVDPLLEPVLPAPVRHTVTVALGFGIVTLLHVVYGELAPKTIAIQRAERVALVVAPVMKLFYYVFLPGTILFNGIATRSVQLIGVSPETEGHDTHTEPEILSVLSEASAAGRISPAEVSMIEHVFSLDDTTVREIMRPRPDVTSVSADTPLPELRTMAASGEYTRYPVTEGPDDDVIGFVDVKDILRASDAIDESGDVTARELSRPVVVVPETLRVDELLAEFQAEHRQMAVVIDEWGAFEGLATIEDALEVIVGDIRDQFDLATHAQSIEPRDDGGYEVPGAVSITELNDHLGTDFENEAVETVAGLVVSRLGHAPTVGDRAVIDTHTFRVTGVDGARITSLTVTPDS | failed
MRYERDMRGYGANPPDPKWPGGAHVAVQFVVNYEEGGENCVLHGDKASEAFLSEIVGAAPWVGQRHWNMESIYEYGARAGFWRLLRLFSESQVPVTCYGVASALARSPDQVTAMQDAGWEIASHGLRWIDYRDHSAEDERRDLEAAIKLHYEVTGQRPTGWYTGRTSVNTVRLVAEEGGFDYVSDTYDDELPYWFEHAGGTQLIIPYTLDANDMRFATPQGFNSGDQFFAYLKDSFDTLYAEGQAGRPRMMNIGLHCRLVGRPGRVAALKRFVDYVKSHDKVWLTRRIDIAKHWQENHPYKPAALRPSKMEFEIFVHTFGGVFEHSPWIAERAYELELGPAHDTAGGLHNALCRIFRSASETERLGVLNAHPDLAGKLAKARRLTAESTREQASAGLDALTDKERELFSKLNAAYVTTFGFPFIIAVKGKTKEEILAEFEARIGNSRGVEFETACKQVERIALLRLRDMLPQ | failed
MRYKRRFVTVYRDFPEGCGVPSKPISNADESFMQSKFNKDGIVLQAHEDFSKITKESSNHSETENSRTEDLLDEGSVLDSNGSVTDCQEDREREMSSVKKRCLSSHNLTSEVETERIGIVLGLAAKAKCPWRQPKIRGSRQVNDLN | failed
